One experiment concerns CFU-MIX. The experiment in a line: CFU-MIX cycling assay in vitro with Ara C. Format: cell-based, mouse. The protocol: A similar assay can be performed in vitro, using the cycling status of CFU-MIX instead of CFU-S. The assay is performed as described above for the CFU-S assay except that cytosine arabinoside (Ara C, 30 mg/ml) is used as the cycle-specific toxic agent instead of high dose tritiated thymidine (see B. I. Lord in Haemopoiesis—A Practical Approach, N. G. Testa and G. Molineux (Eds.), IRL Press 1993; Pragnell et al. in Culture of Hematopoietic Cells, R. I. Freshney, I. B. Pragnell and M. G. Freshney (Eds.), Wiley Liss 1994) and a mouse strain with high endogenous cycling rates (Balb/c) is used instead of testosterone-treated BDF1 mice.
To test the activity of these sequences, the CFU-MIX cycling assay was conducted as described in Example 14. As shown in Tables 17-19, these peptides all are active in this assay.

The next experiment relates to HPP-CFC. The experiment in a line: High proliferative potential colony (HPP-CFC) assay after pre-incubation. Format: cell-based, mouse. The following applies: 200 ng/ml, 4 hours pre-incubation, day 14. How it is done:
An in vitro assay for assessing murine reconstituting stem cells and early precursors is the high proliferative potential colony ([…]) assay; other related assays, e.g., CFU-A, CFU-GM, CFU-E, and CFU-GEMM, detect progressively restricted progenitor populations (M. Moore, Blood 177:2122-2128, 1991). […] BDF1 mice were treated with 5-fluorouracil (200 mg/kg i.p.) before their bone marrow was assayed for HPP-CFC numbers. Cells were washed by centrifugation and incubated at densities of 10^6 to 5×10^6 /ml in medium with either no added agent (Controls), pINPROL (25 ng/ml) or MIP-1α (200 ng/ml) for 4 hours. After incubation, cells were washed and plated in agar (0.3%) with 30% FCS and combined conditioned medium from 5637 and WEHI-3B cell lines (7.5% of each conditioned medium, as recommended by Sharp et al., 1991). Plating concentration was 5×10^4 cells/ml in 60 mm dishes.

B1: myoglobin: structurally related protein, inactive in the assay (protein, UniProt P02144 2-154, looked up)
Myoglobin: GLSDGEWQLVLNVWGKVEADIPGHGQEVLIRLFKGHPETLEKFDKFKHLKSEDEMKASEDLKKHGATVLTALGGILKKKGHHEAEIKPLAQSHATKHKIPVKYLEFISECIIQVLQSKHPGDFGADAQGAMNKALELFRKDMASNYKELGFQG
B1: in the experiment with CFU-MIX, the “activity in the CFU-MIX cycling assay” value was “inactive”.

B2: macrophage inflammatory protein 1-alpha (protein, UniProt P10147 24-92, looked up)
C-C motif chemokine 3: SLAADTPTACCFSYTSRQIPQNFIADYFETSSQCSKPGVIFLTKRSRQVCADPSEEWVQKYVSDLELSA
In the case of B2, the “% of Control (HPP-CFU)” value with HPP-CFC is recorded as 101%.

The record behind these values is patent US6858583B2, “Hemoglobin alpha chain peptide fragments useful for inhibiting stem cell proliferation” (Wellstat Therapeutics Corporation, priority 1993, dated 2005).
